From IntAct's records for PubMed 26635368

B1: Sprouty-related, EVH1 domain-containing protein 1 (Homo sapiens), Q7Z699 (parent)
chain: MSEETATSDNDNSYARVRAVVMTRDDSSGGWLPLGGSGLSSVTVFKVPHQEENGCADFFIRGERLRDKMVVLECMLKKDLIYNKVTPTFHHWKIDDKKFGLTFQSPADARAFDRGIRRAIEDISQGCPESKNEAEGADDLQANEEDSSSSLVKDHLFQQETVVTSEPYRSSNIRPSPFEDLNARRVYMQSQANQITFGQPGLDIQSRSMEYVQRQISKECGSLKSQNRVPLKSIRHVSFQDEDEIVRINPRDILIRRYADYRHPDMWKNDLERDDADSSIQFSKPDSKKSDYLYSCGDETKLSSPKDSVVFKTQPSSLKIKKSKRRKEDGERSRCVYCQERFNHEENVRGKCQDAPDPIKRCIYQVSCMLCAESMLYHCMSDSEGDFSDPCSCDTSDDKFCLRWLALVALSFIVPCMCCYVPLRMCHRCGEACGCCGGKHKAAG

Variants of: B1
Conditions: with nf1_human NF1, P21359
Chain of nf1_human NF1, P21359 (P21359 whole entry): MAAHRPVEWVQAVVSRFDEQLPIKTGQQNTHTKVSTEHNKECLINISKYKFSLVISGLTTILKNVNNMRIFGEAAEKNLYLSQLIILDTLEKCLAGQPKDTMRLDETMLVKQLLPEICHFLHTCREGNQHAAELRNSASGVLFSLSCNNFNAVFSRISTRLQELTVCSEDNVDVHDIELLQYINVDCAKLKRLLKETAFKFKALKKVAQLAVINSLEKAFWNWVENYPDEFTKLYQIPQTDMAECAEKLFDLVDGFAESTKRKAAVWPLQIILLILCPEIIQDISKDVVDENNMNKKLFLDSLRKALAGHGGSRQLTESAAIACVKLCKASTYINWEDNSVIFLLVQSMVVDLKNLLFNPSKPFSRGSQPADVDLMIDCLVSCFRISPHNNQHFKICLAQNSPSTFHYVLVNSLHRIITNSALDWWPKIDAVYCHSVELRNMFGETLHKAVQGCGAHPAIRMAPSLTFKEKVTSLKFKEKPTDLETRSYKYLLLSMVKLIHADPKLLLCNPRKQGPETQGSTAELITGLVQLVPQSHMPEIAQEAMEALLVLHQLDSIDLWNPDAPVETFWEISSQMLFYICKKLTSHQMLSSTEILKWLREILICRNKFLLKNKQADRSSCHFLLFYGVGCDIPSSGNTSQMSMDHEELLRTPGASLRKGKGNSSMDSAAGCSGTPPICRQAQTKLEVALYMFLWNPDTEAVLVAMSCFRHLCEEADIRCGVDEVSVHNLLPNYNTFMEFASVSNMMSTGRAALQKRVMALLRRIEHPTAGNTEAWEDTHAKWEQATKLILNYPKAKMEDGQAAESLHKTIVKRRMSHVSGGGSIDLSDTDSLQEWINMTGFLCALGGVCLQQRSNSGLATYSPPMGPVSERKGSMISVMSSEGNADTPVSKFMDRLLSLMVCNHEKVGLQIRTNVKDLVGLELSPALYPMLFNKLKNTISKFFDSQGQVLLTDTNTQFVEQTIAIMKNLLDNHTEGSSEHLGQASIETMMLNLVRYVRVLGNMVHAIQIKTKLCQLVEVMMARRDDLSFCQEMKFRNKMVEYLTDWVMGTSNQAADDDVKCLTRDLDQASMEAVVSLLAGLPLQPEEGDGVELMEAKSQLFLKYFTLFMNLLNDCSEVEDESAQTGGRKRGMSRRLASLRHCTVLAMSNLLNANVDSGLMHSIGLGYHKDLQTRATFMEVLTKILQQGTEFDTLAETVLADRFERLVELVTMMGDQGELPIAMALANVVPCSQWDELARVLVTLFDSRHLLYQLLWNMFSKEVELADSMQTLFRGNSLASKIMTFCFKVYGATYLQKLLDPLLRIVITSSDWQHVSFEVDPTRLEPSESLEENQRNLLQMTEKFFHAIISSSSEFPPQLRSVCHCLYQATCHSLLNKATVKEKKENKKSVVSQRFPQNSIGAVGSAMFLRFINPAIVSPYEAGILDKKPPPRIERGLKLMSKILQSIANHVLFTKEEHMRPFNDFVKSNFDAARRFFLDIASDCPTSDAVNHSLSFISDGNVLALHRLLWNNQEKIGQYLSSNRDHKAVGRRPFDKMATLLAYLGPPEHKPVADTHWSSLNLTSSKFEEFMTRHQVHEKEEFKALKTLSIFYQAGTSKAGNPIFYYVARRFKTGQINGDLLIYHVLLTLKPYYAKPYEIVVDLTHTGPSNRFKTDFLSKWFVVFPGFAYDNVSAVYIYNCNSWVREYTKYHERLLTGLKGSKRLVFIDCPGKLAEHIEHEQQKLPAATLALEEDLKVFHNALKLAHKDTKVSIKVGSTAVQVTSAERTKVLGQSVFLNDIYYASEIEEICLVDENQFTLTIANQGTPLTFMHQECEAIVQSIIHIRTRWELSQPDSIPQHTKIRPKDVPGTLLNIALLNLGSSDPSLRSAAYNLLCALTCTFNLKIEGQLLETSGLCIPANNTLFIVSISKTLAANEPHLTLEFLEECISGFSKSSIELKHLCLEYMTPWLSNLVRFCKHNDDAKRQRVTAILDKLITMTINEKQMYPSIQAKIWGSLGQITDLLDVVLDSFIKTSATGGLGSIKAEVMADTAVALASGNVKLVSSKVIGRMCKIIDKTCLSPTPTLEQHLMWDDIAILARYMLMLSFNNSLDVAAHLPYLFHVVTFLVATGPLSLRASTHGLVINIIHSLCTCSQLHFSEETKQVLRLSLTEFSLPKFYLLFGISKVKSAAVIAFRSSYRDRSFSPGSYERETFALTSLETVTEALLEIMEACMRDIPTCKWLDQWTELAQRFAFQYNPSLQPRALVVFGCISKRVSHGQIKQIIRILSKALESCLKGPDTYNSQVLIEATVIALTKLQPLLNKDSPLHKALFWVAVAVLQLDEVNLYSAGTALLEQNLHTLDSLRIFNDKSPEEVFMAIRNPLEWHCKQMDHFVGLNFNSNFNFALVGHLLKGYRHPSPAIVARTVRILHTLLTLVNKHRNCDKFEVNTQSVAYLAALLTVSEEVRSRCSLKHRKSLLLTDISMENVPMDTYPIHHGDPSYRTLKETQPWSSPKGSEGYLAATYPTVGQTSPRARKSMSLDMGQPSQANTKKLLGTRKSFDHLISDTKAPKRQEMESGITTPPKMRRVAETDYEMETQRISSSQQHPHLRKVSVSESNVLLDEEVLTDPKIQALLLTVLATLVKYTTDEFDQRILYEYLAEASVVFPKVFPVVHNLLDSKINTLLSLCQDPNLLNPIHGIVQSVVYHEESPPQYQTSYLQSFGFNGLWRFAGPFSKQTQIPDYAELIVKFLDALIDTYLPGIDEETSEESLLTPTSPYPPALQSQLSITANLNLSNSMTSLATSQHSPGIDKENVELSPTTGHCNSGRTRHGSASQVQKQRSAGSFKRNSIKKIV

Effect of a mutation on the interaction, decreasing interaction strength:
R24Q
G30R
W31C
G62R
L80R
G100D
T102M
T102R
I116N

Effect of a mutation on the interaction, with no effect:
D9V
N10K
V42I
C74F

Effect of a mutation on the interaction, disrupting interaction strength:
W31L
V44D
T88K
W92R
T102K

Variants of: B1
Conditions: with nf1_human NF1, P21359
Remark: another data set of the same source

Effect of a mutation on the interaction, disrupting interaction strength:
G30R
W31C

Variants of: B1
Conditions: with nf1_human NF1, P21359
Remark: another data set of the same source

Effect of a mutation on the interaction, disrupting interaction strength:
T102R
